Laboratory results as given in patent publication US20220153835A1.

How the values were obtained:
[1] = biological target: LAG-3-huIgG1 Fc fusion protein; test: competition binding assay, LAG-3-Ig on Raji cells
[2] = biological target: LAG-3 expressed on cells (species not stated at the experiment) (human) (UniProt P18627)

IC50 [1]: 2.3 nM
IFN-γ expression, cells stimulated with CMV peptides (fold increase) [2]: 1.4
IFN-γ expression, cells stimulated with anti-CD3 (0.1 µg/mL) (fold increase) [2]: 3
B1: murine anti-LAG-3 mAb BAP050 (antibody, V domains shown)
VH: QIQLVQSGPELKKPGETVKISCKASGFTLTNYGMNWVRQTPGKGLKWMGWINTDTGEPTYADDFKGRFAFSLETSASTASLQINNLKNADTATYFCARNPPYYYGTNNAEAMDYWGQGTAVTVSS
VL: DIQMTQTTSSLSASLGDRVTISCSSSQDISNYLNWYQQKPDGTVKVLIYYTSTLHLGVPSRFSGSGSGTDYSLTISNLELEDIATYYCQQYYNLPWTFGGGTKLEIK
IFN-γ expression, cells stimulated with Staphylococcal enterotoxin B (SEB) (3 µg/mL) (fold increase) [2]: 1.6
